Columns and labels:
[1] = test system: CsnR (ROK-family transcriptional repressor, SSPG_04872) (Streptomyces lividans TK24); test: competition
[2] = test system: CsnR (ROK-family transcriptional repressor, SSPG_04872) (Streptomyces lividans TK24); test: EMSA; details: 10 mM HEPES pH 7.9, 150 mM KCl, 10% glycerol, poly(dI-dC), room temperature

CCTCTTCTGGTAGGAAACTTTCCGATCAGT (double strand) [csnA-M2]
IC50 ([1]; competitor vs labeled csnA-WT, +6 mutation, SE logIC50 0.08): 2.7 nM

CCTCTTCTGGTAGGAAACTTTCCTATCAGT (double strand) [csnA-WT]
Kd ([2]; SE 0.009 nM): 0.032 nM | IC50 ([1]; unlabeled competitor vs 0.03 nM labeled csnA-WT, SE logIC50 0.11): 1.3 nM

CCTCTTCTGGTAGGAAACTGTCCTATCAGT (double strand) [csnA-M1]
IC50 ([1]; competitor vs labeled csnA-WT, +2 mutation, SE logIC50 0.13): 52.1 nM

CTCCAGCCAACAGGAAACTTTCCTAACAGA (double strand) [csnR-WT]
Kd ([2]; SE 0.008 nM): 0.04 nM

CCTCTTCTGGTAGGAAACTGTCCGATCAGT (double strand) [csnA-MM]
IC50 ([1]; competitor vs labeled csnA-WT, +2 and +6 mutations, lost most affinity, SE logIC50 0.33): 105 nM

Reference: patent publication US20130210077
